Experimental data: the supplement of paper PMC9233669
Fewer inactive variants are shown than the library holds.

Key:
biotinyl-Met-oxazolone = test: self-aminoacylation, catalytic enhancement (BMO) (fold over background); higher = more active; k-Seq, kA / k0A0; sequences stand for … in GGGAAUGGAUCCACAUCUACGAAUUC…UUCACUGCAGACUUGACGAAGCUG
Method in brief: (§1)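 Mutagenized RNA pools with a 21-nt variable region (0.43 μM) were reacted with each biotinyl-aminoacyl-oxazolone at 2–1250 μM for 90 minutes at room temperature, in 50 μL HEPES/NaCl/KCl/MgCl2/CaCl2 buffer containing 5% acetonitrile at pH 6.9–7.0. RNA captured on streptavidin was quantified by triplicate qPCR and by Illumina sequencing. The fraction reacted for each sequence was fit to a pseudo-first-order model with bootstrapping, and catalytic enhancement is the median kA divided by the uncatalyzed rate, taken as the low-activity peak of a bimodal Gaussian fit.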

biotinyl-Ile-oxazolone = test: self-aminoacylation, catalytic enhancement (BIO) (fold over background); higher = more active; k-Seq, kA / k0A0; sequences stand for … in GGGAAUGGAUCCACAUCUACGAAUUC…UUCACUGCAGACUUGACGAAGCUG
Method in brief: as §1

biotinyl-Leu-oxazolone = test: self-aminoacylation, catalytic enhancement (BLO) (fold over background); higher = more active; k-Seq, kA / k0A0; sequences stand for … in GGGAAUGGAUCCACAUCUACGAAUUC…UUCACUGCAGACUUGACGAAGCUG
Method in brief: as §1

biotinyl-Trp-oxazolone = test: self-aminoacylation, catalytic enhancement (BWO) (fold over background); higher = more active; k-Seq, kA / k0A0; sequences stand for … in GGGAAUGGAUCCACAUCUACGAAUUC…UUCACUGCAGACUUGACGAAGCUG
Method in brief: as §1

biotinyl-Phe-oxazolone = test: self-aminoacylation, catalytic enhancement (BFO) (fold over background); higher = more active; k-Seq, kA / k0A0; sequences stand for … in GGGAAUGGAUCCACAUCUACGAAUUC…UUCACUGCAGACUUGACGAAGCUG
Method in brief: as §1

biotinyl-Val-oxazolone = test: self-aminoacylation, catalytic enhancement (BVO) (fold over background); higher = more active; k-Seq, kA / k0A0; sequences stand for … in GGGAAUGGAUCCACAUCUACGAAUUC…UUCACUGCAGACUUGACGAAGCUG
Method in brief: as §1

Sequence | self-aminoacylation (biotinyl-Met-oxazolone) | self-aminoacylation (biotinyl-Ile-oxazolone) | self-aminoacylation (biotinyl-Leu-oxazolone) | self-aminoacylation (biotinyl-Trp-oxazolone) | self-aminoacylation (biotinyl-Phe-oxazolone) | self-aminoacylation (biotinyl-Val-oxazolone)
AUUCACCUAGGUCGCCGGGUG [Fam2.2 aminoacylation ribozyme variant] | 3.99 | 3.4 | 3.8 | 3.38 | 18.5 | 3.25
CCAUCCUUCAAGCAAUCGGUC [Fam1B.1 aminoacylation ribozyme variant] | 1.15 | 1.13 | 1.3 | 9.38 | 16.4 | 1.19
AAGUUUGCUAAUUGCCGCAAG [Fam3.1 aminoacylation ribozyme variant] | 1.47 | 1.87 | 1.35 | 2.73 | 1.02 | 1.44
CCACAAUUCAAGCAAUCGGUU [Fam1B.1 aminoacylation ribozyme variant] | 1.76 | 1.68 | 1.39 | 1.55 | 1.16 | 1.65
CCACACCCCAAGCAAUCGGUC [Fam1B.1 aminoacylation ribozyme variant] | 0.627 | 1.6 | 1.04 | 0.888 | 1.04 | 1.37
GCACAAUUCAAGCAAUCGGUC [Fam1B.1 aminoacylation ribozyme variant] | 1.81 | 2.1 | 1.79 | 3.3 | 3.04 | 1.94
GUUCACCUAGGUCAUCGGGGG [Fam2.2 aminoacylation ribozyme variant] | 4.28 | 2.93 | 5.9 | 4.61 | 6.24 | 3.43
AUUACCUGGGUCAUCGAGUGA [Fam2.1 aminoacylation ribozyme variant] | 5.07 | 2.83 | 4.74 | 5.91 | 5.6 | 3.05
AUUCACCUAGGUCAGUGGGUG [Fam2.2 aminoacylation ribozyme variant] | 1 | 0.904 | 1.26 | 0.885 | 1.08 | 0.999
AACUUUGCUAAUAGUCGCUAG [Fam3.1 aminoacylation ribozyme variant] | 2.22 | 2.28 | 2.78 | 1.84 | 2.6 | 1.64
AUUCAUCUAGUUCAUCGGGUG [Fam2.2 aminoacylation ribozyme variant] | 2.83 | 2.13 | 3.27 | 3.1 | 12.6 | 2.21
GUUACCCUGGUCAUCCAGUGA [Fam2.1 aminoacylation ribozyme variant] | 7.39 | 4.66 | 7.84 | 9.02 | 52.7 | 4.7
AUUACCCUGGUCAUCGACAGA [Fam2.1 aminoacylation ribozyme variant] | 0.716 | 1.04 | 0.738 | 0.676 | 0.705 | 0.774
CCAGACUUCAAGCAAGCGGUC [Fam1B.1 aminoacylation ribozyme variant] | 0.821 | 0.87 | 1.15 | 0.843 | 0.523 | 0.932
AUUCACCUUGGUCAUGGGGUG [Fam2.2 aminoacylation ribozyme variant] | 4.32 | 2.91 | 6.08 | 4.27 | 26.8 | 3.36
CUAGUUCAACCAAUCGGUCUG [Fam1A.1 aminoacylation ribozyme variant] | 0.955 | 1 | 1.06 | 2.82 | 3.36 | 0.913
ACGUUUGCUGAUAGUCGCAAG [Fam3.1 aminoacylation ribozyme variant] | 1.12 | 1.52 | 1.57 | 1.69 | 4.7 | 1.35
CUACUUCCAACAAGCGGUCUG [Fam1A.1 aminoacylation ribozyme variant] | 1.04 | 1.21 | 0.79 | 0.678 | 0.744 | 0.95
AUUACCUUGGCCAUCGAGUGA [Fam2.1 aminoacylation ribozyme variant] | 2.38 | 1.95 | 2.5 | 3.26 | 2.01 | 1.62
UUGACCCUGGUCAUCGAGUGA [Fam2.1 aminoacylation ribozyme variant] | 19.9 | 7.37 | 19.1 | 18.7 | 129 | 7.21
CUUCACCUAGGGCAUCGGGUG [Fam2.2 aminoacylation ribozyme variant] | 2.91 | 2.75 | 3.99 | 4.25 | 17.5 | 3.04
AUUACCCUGUUUAUCGAGUGA [Fam2.1 aminoacylation ribozyme variant] | 12.6 | 5.5 | 12.3 | 15.7 | 62.5 | 6.02
AAGUUCGCUAAUAGUCGCCAG [Fam3.1 aminoacylation ribozyme variant] | 1.84 | 2.33 | 1.79 | 2.27 | 11.6 | 1.81
AUUCACCUAUGUAAUCGGGUG [Fam2.2 aminoacylation ribozyme variant] | 5.17 | 3.11 | 7.44 | 5.74 | 36.4 | 2.91
AUUAGCCUGGUCAUCGAGUAA [Fam2.1 aminoacylation ribozyme variant] | 1.31 | 1.52 | 1.57 | 0.949 | 1.85 | 1.51
CGACGCUUCAAGCAAUCGGUC [Fam1B.1 aminoacylation ribozyme variant] | 1.07 | 1.2 | 1.58 | 16.7 | 22.7 | 1.35

Sequence | self-aminoacylation (biotinyl-Met-oxazolone) | self-aminoacylation (biotinyl-Ile-oxazolone) | self-aminoacylation (biotinyl-Leu-oxazolone) | self-aminoacylation (biotinyl-Trp-oxazolone) | self-aminoacylation (biotinyl-Phe-oxazolone) | self-aminoacylation (biotinyl-Val-oxazolone)
CCGCACUUCAAGCUAUCGGUC [Fam1B.1 aminoacylation ribozyme variant] | 0.919 | 1.15 | 0.84 | 1.19 | 0.936 | 1.42
CUAUUUCUAACAAUCGGUCUG [Fam1A.1 aminoacylation ribozyme variant] | 0.818 | 0.913 | 0.824 | 0.668 | 0.973 | 0.787
UUUACACUGGUCAUCGAGUGA [Fam2.1 aminoacylation ribozyme variant] | 5.97 | 3.29 | 5.04 | 7.26 | 23.9 | 3
AUUACCCUGGUAAUCGAGUGC [Fam2.1 aminoacylation ribozyme variant] | 1.12 | 0.957 | 1.04 | 0.656 | 1.38 | 0.801
AUUCACCUAGGUCACCGGUUG [Fam2.2 aminoacylation ribozyme variant] | 1.62 | 1.92 | 1.55 | 1.29 | 7.82 | 1.7
AUCAGCCUGGUCAUCGAGUGA [Fam2.1 aminoacylation ribozyme variant] | 4.28 | 3.99 | 4.62 | 6.36 | 32.5 | 3.49
AAGUUUCCUCAUAGUCGCAAG [Fam3.1 aminoacylation ribozyme variant] | 1.39 | 2.1 | 2 | 1.84 | 3.38 | 2.08
CUUCUUCAAAGAAUCGGUCUG [Fam1A.1 aminoacylation ribozyme variant] | 1.05 | 0.956 | 1.07 | 2.95 | 3.04 | 0.889
AUUGCCCUGGUCAUCGCGUGA [Fam2.1 aminoacylation ribozyme variant] | 23.1 | 9.62 | 26.3 | 23.6 | 157 | 12
ACUCACCUAGGUCAUCGGGUG [Fam2.2 aminoacylation ribozyme variant] | 15.9 | 9.45 | 19.8 | 13.9 | 105 | 9.32
AUUCACCUAGGCGAUCGGGUG [Fam2.2 aminoacylation ribozyme variant] | 3.5 | 2.88 | 4.89 | 3.78 | 20.4 | 3.52
CAACACUUCAAUCAAUCGGUC [Fam1B.1 aminoacylation ribozyme variant] | 1.19 | 1.06 | 1.66 | 19.1 | 34.9 | 1.05
AUUACCUCGGUCAUCGAGUGA [Fam2.1 aminoacylation ribozyme variant] | 5.12 | 2.82 | 5.32 | 6.06 | 20.8 | 2.87
CCACUUCAAACAGUCGGUCUG [Fam1A.1 aminoacylation ribozyme variant] | 1.09 | 1.19 | 0.89 | 1.54 | 0.637 | 1.39
AAGUUUGCUAAGAGGCGCAAG [Fam3.1 aminoacylation ribozyme variant] | 0.759 | 0.727 | 0.547 | 0.895 | 1.21 | 0.656
AUACAACUAGGUCAUCGGGUG [Fam2.2 aminoacylation ribozyme variant] | 5.2 | 3.32 | 6.09 | 5.27 | 34.4 | 3.22
AAGUUCGCUAUUAGUCGCAAG [Fam3.1 aminoacylation ribozyme variant] | 1.82 | 2 | 2.14 | 1.44 | 2.21 | 1.5
CCACACUACUAGCAAUCGGUC [Fam1B.1 aminoacylation ribozyme variant] | 0.694 | 0.798 | 0.71 | 0.623 | 0.743 | 0.753
CUGCUUCAAACAAUCGGACUG [Fam1A.1 aminoacylation ribozyme variant] | 1.26 | 1.13 | 1.79 | 28.3 | 49.5 | 1.21
AUUCACCUAAGUCAUCAGGUG [Fam2.2 aminoacylation ribozyme variant] | 3.1 | 2.23 | 3.53 | 3.31 | 11 | 2.07
CUACUUGAAACAAUCGGUCGG [Fam1A.1 aminoacylation ribozyme variant] | 0.994 | 0.997 | 1.13 | 0.589 | 0.733 | 0.949
AUUCACCUAGCUCAGCGGGUG [Fam2.2 aminoacylation ribozyme variant] | 2.68 | 2.08 | 3.49 | 2.83 | 10.6 | 2.09
CUACUCCAAACAAUCGCUCUG [Fam1A.1 aminoacylation ribozyme variant] | 0.783 | 1.11 | 0.949 | 0.596 | 1.32 | 0.884
CCAGACUACAAGCAAUCGGUC [Fam1B.1 aminoacylation ribozyme variant] | 1.16 | 1.26 | 1.17 | 1.35 | 1.07 | 1.42
AUUACACUGGGCAUCGAGUGA [Fam2.1 aminoacylation ribozyme variant] | 5.92 | 3.53 | 6.5 | 7.85 | 27.1 | 3.44
